In patent US6423539B1, “Adjuvant treatment by in vivo activation of dendritic cells” (The Board of Trustees of the Leland Stanford Junior …, priority 2000, dated 2002):

Experiments:
circulating blood DC = experiment: Clinical study: expansion and phenotype of circulating blood DC after Flt3L administration; assay type: in vivo, human
Protocol: Clinical studies were also performed to determine the effect of the activation methods in human patients. It was shown that administration of FL to patients with advanced cancer mobilizes DC precursors into the blood, resulting in an increase of circulating DC of 20 fold on average.
An expansion of circulating blood DC was found following Flt3L administration. PBMC from patients with advanced cancer were assessed either before or following 10 days of Flt3L administration. DC were characterized phenotypically by expression of HLA DR without expression of lineage markers (CD3, 14, 19, 56).
DC were gated on their expression of HLA DR and lack of lineage markers CD3, 14, 19, 56. Flt3L expanded DC express intermediate levels of CD4 and CD54 more homogeneously by comparison with unmobilized DC. Flt3L expanded DC, however, lack surface expression of CD86 and CD40 compared with unmobilized DC. Results are from one patient and are representative of three patients studied.

circulating DC = details: administration to mice in vivo; cited from earlier work

B1: FL: Flt-3 ligand, growth factor that stimulates proliferation of hematopoietic progenitor cells; DC mobilization agent (protein, UniProt P49771 27-235, looked up)
Fms-related tyrosine kinase 3 …: TQDCSFQHSPISSDFAVKIRELSDYLLQDYPVTVASNLQDEELCGGLWRLVLAQRWMERLKTVAGSKMQGLLERVNTEIHFVTKCAFQPPPSCLRFVQTNISRLLQETSEQLVALKPWITRQNFSRCLELQCQPDSSTLPPPWSPRPLEATAPTAPQPPLLLLLLLPVGLLLLAAAWCLHWQRTRRRTPRPGEQVPPVPSPQDLLLVEH
phenotype of expanded human DC (circulating blood DC; gated HLA DR positive, lineage negative, one patient, representative of three): immature phenotype
change in circulating blood DC precursors by flow cytometry (circulating blood DC; patients with advanced cancer, before vs. after 10 days of Flt3L): significant increase
increase of circulating DC (circulating blood DC; patients with advanced cancer, on average): 20 fold
increase in number of circulating DC (circulating DC): 10-30 fold
